Measured values published in paper doi:10.1101/449629.

Experiments:
[1] = molecular target: Recombinant hamster MIF (Syrian golden hamster macrophage migration inhibitory factor) (Syrian golden hamster (Mesocricetus auratus)); experiment: SEC
[2] = molecular target: Recombinant hamster MIF (Syrian golden hamster macrophage migration inhibitory factor) (Syrian golden hamster (Mesocricetus auratus)); experiment: crystal structure

Recombinant hamster MIF (Syrian golden hamster macrophage migration inhibitory factor) (from UniProt A0A140EDM8 1-115) (natural protein)
stoichiometry N [1]: 3 | stoichiometry N [2]: 3
